The values below come from patent US20260078416A1, “ORTHOGONAL METABOLIC FRAMEWORK FOR ONE-CARBON UTILIZATION” (Mojia Biotech Pte. Ltd., priority 2021, published 2026).

Data set [1] can be described thus: In vitro kinetic assay of purified HACS variants; substrate acetaldehyde. Conditions: for Km: read-out: Km, app. The data set is classed as biochemical. As to the method: The kinetic assay was performed with a coupled reaction providing formyl-CoA from formate catalyzed by CoA transferase CaAbfT using acetyl-CoA as a CoA donor.
In vitro kinetic assay was comprised of 100 mM KPi pH 6.9, 10 mM MgCl2, 0.15 mM TPP, 2 mM acetyl-CoA, 1 μM CaAbfT, 0.25 μM HACS variants, and 20 mM sodium formate. Reactions were incubated at room temperature for 3 min to convert formate to formyl-CoA, and then specific concentration of aldehyde (specifically acetaldehyde or propionaldehyde here) was added to the reaction. After incubating another 3 min, 1/20 of the reaction volume of 10 M NaOH solution was added to terminate the reactions. After 30 min hydrolysis, 1/20 of the reaction volume of 10 N H2SO4 was added to neutralize the pH. Samples were centrifuged at 20817×g for 15 minutes and the supernatant analyzed by GC-MS as described below.
For this analysis, 0.15 of the reaction volume of internal standard methyl succinate was added to the samples. The resulting sample was extracted into 4 mL ethyl acetate by vigorous vortexing for 20 min. The organic phase was separated and evaporated to dryness under a stream of nitrogen. The residue was dissolved in 30 μL pyridine and 30 μL N,O-Bis(trimethylsilyl)trifluoroacetamide (BSTFA) and incubated at 60° C. for 15 minutes. Compound identification and analysis was performed by GC-MS using an Agilent 7890B Series Custom Gas Chromatography system equipped with a 5977B Inert Plus Mass Selective Detector Turbo EI Bundle (for identification) and an Agilent HP-5-ms capillary column (0.25 mm internal diameter, 0.25 μm film thickness, 30 m length). Samples were analyzed by GC (1 μL injection with a 20:1 split ratio) using helium as the carrier gas at a flowrate of 1.5 mL/min and the following temperature profile: initial 90° C. for 3 min; ramp at 15° C./min to 170° C.; ramp at 20° C./min to 300° C. and hold for 8 min. The injector and detector temperature were 250° C. and 350° C., respectively.
As hypothesized from Example 3 (FIG. 22B), JGI15 had lower Km with lower kcat with respect to formaldehyde in comparison with JGI20 (Table 8). With longer chain aldehydes JGI15 and JGI20 has lower Km (sub millimolar) to acetaldehyde and propionaldehyde compared to JGI23 and JGI24, while also lower Kcat as well. Which indicates they have stronger affinity to the aldehyde and lower enzymatic activity. JGI23 and JGI24 are promising as they have better activity (higher Kcat) which have a good potential to work better in vivo by improve their affinity to substrates (lower Km). Similarly, AcHACL as lower Km with acetone while JGI15 as better Kcat (Table 8).

Data set [2] concerns 2HIB production from acetone and formate. Briefly: HACS screening with acetone and formate (2HIB production). The class given is cell-based, E. coli. Conditions: 100 mM acetone and 20 mM formate, CaAbfT. As to the method:
The HACS variants are tested using the high throughput screening platform as described in EXAMPLE 3 pathway 2 by co-feeding 100 mM acetone and 20 mM formate with formate activation enzyme CaAbfT (FIG. 37A).

The test system of data set [3] is glycolate production from formaldehyde. The data set is described as follows: Resting-cell bioconversion pathway 1 (HACS with LmACR-EcAldA), formaldehyde as sole carbon source. The data set is classed as cell-based, E. coli. Conditions: for glycolate productivity (glycolyl-CoA synthase activity) compared with RuHACL: 5 mM formaldehyde as sole carbon source. From the text:
We used glycolic acid (glycolate) productivity per cell density (uM glycolate/OD600) as indicator of HACS activity. Two different enzymatic routes for glycolate synthesis are explored. The first pathway (pathway 1) is similar to the pathway used for initial screening in Example 2 with addition of an extra gene, aldehyde dehydrogenase aldA from Escherichia coli (EcAldA) overexpressed to drive flux from glycolaldehyde to glycolate (FIG. 21A). In addition, HACS and LmACR-AldA are controlled under independent inducible promoters to investigate the impact of varying relative gene expressions (FIG. 21B). The second pathway (pathway 2) involves independent fluxes of formaldehyde and formyl-CoA allowing assessment of the enzyme activity with response to changing formaldehyde concentration only, while maintaining constant formyl-CoA flux. Formyl-CoA is generated by formic acid (formate) catalyzed by the acyl-CoA transferase from Clostridium aminobutyricum (CaAbfT) (FIG. 22A).
For the in vivo prototyping, we engineered vectors to independently control expression of HACS variants and the LmACR-EcAldA (pathway 1, FIG. 21A) or CaAbfT (pathway 2, FIG. 22A), with HACS under control of the IPTG-inducible T7 promoter in pCDFDuet-1 and LmACR-EcAldA or CaAbfT under control of a cumate-inducible T5 promoter in pETDuet-1 (FIG. 21B). As a host for these vectors, we used an engineered strain of E. coli based on MG1655(DE3) with knockouts for formaldehyde (ΔfrmA) and formate (ΔfdhF ΔfdnG ΔfdoG) oxidation as well as for glycolate utilization (ΔglcD)), which we expected could compete or interfere with the analysis of our pathway. […]
Cells from the above pre-cultures were then centrifuged (4000 rpm, 22° C.), washed with the above minimal media without any carbon source, and resuspended with 1 mL of above minimal media containing indicated amounts of carbon source. […] The cells were harvested after 3 hours for LmACR-EcAldA co-expression and 1 hour for CaAbfT co-expression by centrifugation and the supernatant analyzed by HPLC or GC-MS as described in EXAMPLE 2. […]

B1: JGI15: HACS variant; GenBank HAK63664.1 (protein)
chain: MAKSEGKVNGATLMARALQQQGVQYMFGIVGFPVIPIAIAAQREGITYIGMRNEQSASYAAQAASYLTGRPQACLVVSGPGVVHALAGLANAQVNCWPMLLIGGASAIEQNGMGAFQEERQVLLASPLCKYAHQVERPERIPYYVEQAVRSALFGRPGAAYLDMPDDVILGEVEEAAVRPAATVGEPPRSLAPQENIEAALDALQSAKRPLVIVGKGMAWSRAENEVRQFIERTRLPFLATPMGKGVMPDDHPLSVGGARSHALQEADLVFLLGARFNWILHFGLPPRYSKDVRVIQLDLSAEEIGNNRQAEVALVGDGKAIVGQLNQALSSRQWFYPAETPWREAIAAKIAGNQAAVAPMIADNTSPMNYYRVYRDIAARLPRNAIIVGEGANTMDIGRTQMPNFEPRSRLDAGSYGTMGIGLGFAVAAAAVHPGRPVIAVQGDSAFGFSGMEFETAARYGMPIKVIILNNGGIGMGSPAPRDGQPGMPHALSHDARYERIAEAFGGAGFYVTDSAELGPALDAAMAFKGPAIVNIKIAATADRKPQQFNWHG
Usually Km stands for the concentration of substrate that gives half-maximal velocity. As to B1, the “Kcat, app” value in data set [1] worked out at 22.50 ± 1.93 s⁻¹. The Km in data set [1] stood at 290 ± 20 µM. The “performance in 2HIB production” value in data set [2] is “best performance”; in data set [2] (listed as JG115), “better performance than other HACLs”. Moreover, the “glycolate productivity (glycolyl-CoA synthase activity) compared with RuHACL” value in data set [3] was “exceeding the starting reference enzyme, RuHACL”. The “glycolate productivity relative to RuHACL” value in data set [3] (5 mM formaldehyde sole carbon source, optimal inducer concentrations, 3 hours) is reported as 2.5 fold.

B2: JGI20: HACS variant; GenBank PWB41796.1 (protein)
chain: MGQITGAQIVARALKQQGVEYMFGIVGIPVIPIAMFAQREGIKFYGFRNEQSASYAAAAVGYLTGRPGVCLGVSGPGMIHGVAGMANAWSNCWPMILIGGANDSYQNGQGAFQEAPQIEAARPFAKYCARPDSLARLPFYVEQAVRTSIYGRPGAVYLDLPGDIITGAMEEEDVHFPPRCPDAPRMMAPQESIDAAMAALKSAERPLVIVGKGAAYSRAENEVREFLETTQLPYLASPMGKGVMPDDHPLSIAPARSAALLGADVILLMGARLNWMMHFGHPPRFDPKVRVIQMDISAEEIGTNVPTEVALVGDAKAITTQLNASLKQQPWQYPSETTWWTGLRKKIDENGATVAEMMADESVPMSYYRVYREIRDLIPNDAIIQNEGASTMDIGRTLMPNFLPRHRLDAGSFGTMGVGLGQAIAAAAVHPDKHVFCIEGDSAFGFSGMEVETAARYGMKNITFIIINNNGIGGGPDTLDPTRVPPSAYTPNAHYEKMAEIYGGKGYFVTEPSQLRPALEEAIKADKPAIVNIMISATSQRKPQQFAWLTR
For B2, in data set [1], the “Kcat, app” value turned out to be 39.44 ± 3.95 s⁻¹ and the Km is 930 ± 150 µM. Besides, the “performance in 2HIB production” value in data set [2] is “better performance than other HACLs”. In addition, the “glycolate productivity (glycolyl-CoA synthase activity) compared with RuHACL” value in data set [3] is on record as “exceeding the starting reference enzyme, RuHACL”.
